Source: the NTF2 design screens of Basanta et al. (2020)

Test: protease stability score; higher = more stable; yeast display proteolysis, trypsin and chymotrypsin;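 note: relative to predicted unfolded state with 0 unfolded-like and 1 meaning tenfold more protease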

Q: With “SEDEHRSRHDAELFLKFVKTGDEHHLQRFADPNVQFHQGEWEDHGRESLREQFRKFMEDLGADHSELESIRVHIQGDKMTVHIHVTFRVGDKTIKSTWRFYITKINGRWTMERMDVELH” as the sequence, how does the protease stability score read?
A: 0.629

Q: For “SEDEHSFKMAIDLWEEVSRTGDEKDLRELIDPHVRVEYGDKHHVGWDRFIKVFHEIRFHHIKVRDHRIIGDKLHMNIEVHGEYNGQRVTIETHVVMRKIDGRWFTETMQID”, which protease stability score is on record?
A: 1.22

Q: For “SEDEHSWRLAREEFRKTNETGNEEDLSRLFDPHVRIDINGREIHGRDEASELFHKLGIDHIRWRVKRVKIFDGRMENRGELILIFNGREHRYDITVISSKIDGQWSVESMHYK”, which protease stability score is on record?
A: 0.534

Q: For “SEDEHYVRHAIKLWMDSHLTGDEHTLTQLLDPNVRTDFNGREFHGREEASKWTKHLLERMGIKVSDVHLRRLDVQGDKAISHTELIIHFNGVDLSKEVHIDIMKVDGQWMIRDLTII”, which protease stability score is on record?
A: 0.613

Q: With “SEDEIARHILHKMMTGDEDSFEELLDPNARLIVGNKHSHGRERVIEDWKRDLELAGFKHSEVKRIHFQGEKSHVHGHINVNGKEYRVLFILVIVNGRLKEVELHVTDEREEKYLHRTWE” as the sequence, how does the protease stability score read?
A: 0.007

Q: For “SEDEIAVKKFMQRWIEAVHTGNEDVLTELADPNYRIIFEGRNLHGMDQILHDVRRVDVLEERMHVTSVDSQGDKIHIHGTLQVHFHVGDKQIDIHTQVTWHMLKIDGVWILKKVEIH”, which protease stability score is on record?
A: 1.39

Q: With “SEDEKASKEAFELWRRVDETGDEHSLLRLLDPHVRLHIGDKHLHGREEVKRLLEELGVSRVHFDLRTIRVINGKVFVHGDFEVGDKRTHSEIVALKVDGRWINESIHIR” as the sequence, how does the protease stability score read?
A: 0.806

Q: Which protease stability score does the source give for “SEDEKAVEDLFKLWVRDLVTGDEDSINKLLDPNARVEIGDKEFHGMEDVVRFLLHIRFKHVEMHDMRVQGNKATLHVDIRGVVDGRDRELDTILIIEKVNGKWYLHHQKIN” here?
A: 1.48

Q: Which protease stability score does the source give for “SEDEKDAEKMSERFLHMFITGNEELFRDLADPHTRLKVNGVHNHGREHVEILNKEFLTRLGVNYYEEHDVRYRVIDGVVFIDIVGHMNIDGQETEVTLHWRVLKVNGRWRITEVDIRRH” here?
A: 1.64

Q: For “SEDEKDAHEAVKRMVHFSETGDWREIEELADPHYRIDWNGRTHIGREEFTEITKRLGINVIRHRHITIINGRIHVHGEVHFNGQSTEVEFIITKINGKWRLHEMIIR”, which protease stability score is on record?
A: 0.747

Q: Which protease stability score does the source give for “SEDEKDARIAVKLLWEIFQTGDEDLFTKFIDPNTRSEINGREIHGREDVYRLMEELGIKVIRVHDVKTQGDKVHLTMEVTVNGRRHRVHFIFEKIDGRWIARHEKVE” here?
A: 1.45

Q: Which protease stability score does the source give for “SEDEKDVKDAFDIWYESHITGNEEYARKMADPDTLSIVNGVRIHGMETWMHFLLKHQKELGIDVYTTDIHHVEVFDGRVKVDLRMREIFNGRHLEFETEVISEKIDGRWHVRSIRIT” here?
A: 1.36

Q: Which protease stability score does the source give for “SEDEKEAKETQSIYSHAVQTGDEHHLKELADPNVRIEINGVEYVGWEQLKDMLERFKNVRIKVSVRRVHQIGDKIHLNTELEEDVDGVRRVIDVRVIIWKINGRWRFKTFESQ” here?
A: 1.41

Q: With “SEDEKEDHELSRHVIETLKTGDWELLSELADPHVRLKVNGKTYIGRELFTETVRRLLDRFKNMTLKIEDIKTVDGRLEIHIFLIVGDKFFELIIIATKVDGRWFEEEMHVHHS” as the sequence, how does the protease stability score read?
A: 0.915

Q: Which protease stability score does the source give for “SEDEKEMKQALEHWLELLTTGNEEENEKLADPDVRLNFNGKEFHGWKLYREFLSRIKNATIRIREVRVVNGKVTVISELRIGDKVFEVQIHLKKVNGKWYVEEEHIH” here?
A: 1.61

Q: Which protease stability score does the source give for “SEDEKENREWKRLLIEAHMTGDEHFLSRQLDPNVLVIVNGQEKVGREEAERELKEWLDKVKGLRIRRFDTESEEFVDGRLHSNLKLDGIINGRRTELDIHVISVKIDGQWQIRQIFFV” here?
A: 1.44

Q: With “SEDEKERDMIAELFVRSLVTGDEELIKDLIDPNVKLDIGDKSRHGRENFTRQILHFGVDHVDVTEMHVQGEKVNLRGNWNINGVDLDVINYVTKVNGKWLLTRVEIK” as the sequence, how does the protease stability score read?
A: 1.14

Q: With “SEDEKFARHVVKLWEDNYKTGNFEELLHMMDPHVKIKVNGRELHGWEELEKILTEFHERFRNQKLDIKLRDLKIQGNYVHADMELTIHYNGQEHREQVHLVVRKVNGRWEIEKITFD” as the sequence, how does the protease stability score read?
A: 0.813

Q: With “SEDEKFLQIALHLMMHWINTGDEDFLREMADPHVRLHDGDKEHHGWKVIEHLFHYYGVDHITVKRYTIIGDKVKTDGELRVGDKRFRILYETVKIDGRWHVHKIEIR” as the sequence, how does the protease stability score read?
A: 1.43

Q: Which protease stability score does the source give for “SEDEKFWEDISKIVLDLLRTGDWELSERYADPNVKVHLVIDGQELDLHGREHVVNLVRKLGADHVETEDHKFHYQGNKIRINIHGHLNINGKVQHVEFTEIWVKVDGRWYSQHHEIVFR” here?
A: 1.55
